Values quoted from earlier work in article PMC3264399.

Assays:
ephrin-B2 (Homo sapiens) = ephrin-B2 (Homo sapiens) (UniProt P52799)
ephrin-B3 (Homo sapiens) = ephrin-B3 (Homo sapiens) (UniProt Q15768)
CD46 (Homo sapiens) = CD46 (Homo sapiens) (UniProt P15529)
CD46 (Homo sapiens), sequence (P15529 35-392): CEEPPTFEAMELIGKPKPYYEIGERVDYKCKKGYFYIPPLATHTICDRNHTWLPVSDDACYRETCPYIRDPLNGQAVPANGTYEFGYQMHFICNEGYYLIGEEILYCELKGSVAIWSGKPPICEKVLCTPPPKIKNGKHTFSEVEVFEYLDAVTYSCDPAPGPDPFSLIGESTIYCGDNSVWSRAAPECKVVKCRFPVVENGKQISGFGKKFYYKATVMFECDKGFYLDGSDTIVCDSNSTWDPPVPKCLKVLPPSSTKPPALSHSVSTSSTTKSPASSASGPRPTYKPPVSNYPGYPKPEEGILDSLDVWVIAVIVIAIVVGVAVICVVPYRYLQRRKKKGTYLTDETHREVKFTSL

NiV-G, sequence (Q9IH62 whole entry): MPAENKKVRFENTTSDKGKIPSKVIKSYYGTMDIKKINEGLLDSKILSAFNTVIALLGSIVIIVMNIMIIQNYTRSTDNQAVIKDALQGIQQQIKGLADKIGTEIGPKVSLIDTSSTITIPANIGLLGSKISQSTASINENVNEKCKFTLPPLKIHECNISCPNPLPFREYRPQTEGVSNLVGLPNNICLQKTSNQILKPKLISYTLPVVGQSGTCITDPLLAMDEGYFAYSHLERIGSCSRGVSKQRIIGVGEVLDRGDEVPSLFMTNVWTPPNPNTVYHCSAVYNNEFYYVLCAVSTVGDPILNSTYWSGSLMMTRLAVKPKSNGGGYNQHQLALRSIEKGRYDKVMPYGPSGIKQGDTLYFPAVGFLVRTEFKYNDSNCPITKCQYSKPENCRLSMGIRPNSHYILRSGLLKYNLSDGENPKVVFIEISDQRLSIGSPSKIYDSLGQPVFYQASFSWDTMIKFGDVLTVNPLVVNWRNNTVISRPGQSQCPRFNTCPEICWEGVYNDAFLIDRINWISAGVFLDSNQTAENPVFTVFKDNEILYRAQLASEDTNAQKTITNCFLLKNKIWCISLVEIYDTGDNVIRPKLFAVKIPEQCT
MeV-H, sequence (P08362 157-607): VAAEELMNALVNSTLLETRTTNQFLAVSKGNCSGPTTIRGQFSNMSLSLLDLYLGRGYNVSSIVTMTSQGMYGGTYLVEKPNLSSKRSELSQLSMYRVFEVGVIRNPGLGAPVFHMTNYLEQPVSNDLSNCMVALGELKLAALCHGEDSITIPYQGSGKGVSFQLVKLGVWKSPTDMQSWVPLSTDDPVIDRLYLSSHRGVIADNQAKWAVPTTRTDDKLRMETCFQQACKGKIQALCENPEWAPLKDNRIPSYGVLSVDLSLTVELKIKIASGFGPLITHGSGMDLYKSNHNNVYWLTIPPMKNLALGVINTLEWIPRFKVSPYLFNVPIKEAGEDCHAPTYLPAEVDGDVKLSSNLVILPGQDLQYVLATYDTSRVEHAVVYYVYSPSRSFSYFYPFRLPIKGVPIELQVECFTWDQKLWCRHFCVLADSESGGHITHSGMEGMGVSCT
ephrin-B2 (Homo sapiens), sequence (P52799 28-333): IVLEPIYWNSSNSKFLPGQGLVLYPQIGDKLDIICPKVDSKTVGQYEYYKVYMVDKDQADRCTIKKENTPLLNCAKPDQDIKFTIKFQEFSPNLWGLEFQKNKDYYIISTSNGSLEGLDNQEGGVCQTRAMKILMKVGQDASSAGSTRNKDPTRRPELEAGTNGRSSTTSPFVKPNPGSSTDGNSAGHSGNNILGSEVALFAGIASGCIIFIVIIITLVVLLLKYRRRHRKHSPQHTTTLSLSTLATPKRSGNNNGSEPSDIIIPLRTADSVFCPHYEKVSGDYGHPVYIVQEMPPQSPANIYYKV
ephrin-B3 (Homo sapiens), sequence (Q15768 28-340): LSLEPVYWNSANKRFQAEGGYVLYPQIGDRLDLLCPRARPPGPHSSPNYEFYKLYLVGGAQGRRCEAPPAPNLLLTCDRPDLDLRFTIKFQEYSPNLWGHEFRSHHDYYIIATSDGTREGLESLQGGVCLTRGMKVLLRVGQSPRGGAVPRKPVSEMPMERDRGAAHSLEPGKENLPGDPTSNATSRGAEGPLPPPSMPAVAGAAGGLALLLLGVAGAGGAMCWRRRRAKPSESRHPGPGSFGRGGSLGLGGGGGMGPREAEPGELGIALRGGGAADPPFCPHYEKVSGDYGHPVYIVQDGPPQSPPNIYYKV

Substance | Kd (ephrin-B2 (Homo sapiens)) [nM] | Kd (ephrin-B3 (Homo sapiens)) [nM] | Kd (CD46 (Homo sapiens)) [nM]
NiV-G (from UniProt Q9IH62) | 0.06 | 0.58 | –
MeV-H (from UniProt P08362) | – | – | 2200
